The results in this text go back to patent EP4803539A2.

The target in assay [1] is antigen of the 'Antigen binding ELISA' (not given). In words: Antigen binding ELISA of stability sample; F0; 25 °C 1 month. A general note: In an ELISA, binding on a coated surface is turned into a signal by an enzyme label.
Assay [2] has the same target. In words: Antigen binding ELISA of stability sample; F0; 25 °C 2 months.
The target is the same in assay [3]. The experiment in a line: Antigen binding ELISA of stability sample; F15; 25 °C 1 month.
For assay [4] the target is unchanged. In words: Antigen binding ELISA of stability sample; F18; 25 °C 1 month.
The target is the same in assay [5]. The experiment in a line: Antigen binding ELISA of stability sample; F15; 25 °C 2 months.
Assay [6] has the same target. The experiment in a line: Antigen binding ELISA of stability sample; F18; 25 °C 2 months.
The target is the same in assay [7]. The experiment in a line: Antigen binding ELISA of stressed sample; F15; 25 °C dark 7 days.
The target is the same in assay [8]. In words: Antigen binding ELISA of stressed sample; F18; 25 °C dark 7 days.
Assay [9] has the same target. The experiment in a line: Antigen binding ELISA of stressed sample; F15; 25 °C 1000 lx 7 days.
Assay [10] has the same target. The experiment in a line: Antigen binding ELISA of stressed sample; F15; 3 freeze-thaw cycles.
The target is the same in assay [11]. The experiment in a line: Antigen binding ELISA of stressed sample; F18; 25 °C 1000 lx 7 days.
For assay [12] the target is unchanged. In words: Antigen binding ELISA of stressed sample; F18; 3 freeze-thaw cycles.
Assay [13] shares this target. The experiment in a line: Antigen binding ELISA of stability sample; F15 without methionine; initial.
The target is the same in assay [14]. In words: Antigen binding ELISA of stability sample; F18 with 10 mM methionine; initial.
The target is the same in assay [15]. In words: Antigen binding ELISA of stability sample; F18 with methionine; 5 °C 2 months.
For assay [16] the target is unchanged. The experiment in a line: Antigen binding ELISA of stability sample; F0; initial (repeated from Table 37).
Assay [17] has the same target. In words: Antigen binding ELISA of stressed sample; F15; initial (repeated from Table 37).
For assay [18] the target is unchanged. The experiment in a line: Antigen binding ELISA of stressed sample; F18; initial (repeated from Table 41A).
Assay [19] shares this target. The experiment in a line: Antigen binding ELISA of stability sample; F0; 5 °C 2 months (same value as Table 37).
For assay [20] the target is unchanged. The experiment in a line: Antigen binding ELISA of stability sample; F18 with methionine; initial (repeated from Table 41A).
The target is the same in assay [21]. The experiment in a line: Antigen binding ELISA of stability sample; F15 without methionine; initial (same value as Table 37).
For assay [22] the target is unchanged. The experiment in a line: Antigen binding ELISA of stability sample; F15 without methionine; 5 °C 2 months (same value as Table 37).

Turning to BAN2401 (antibody), the ELISA (Antigen binding ELISA), report result is 103% in assay [1]; 91.8% in [2]; 104% in [3]; 97% in assay [4]; 96.9% in assay [5]; 97.8% in assay [6]. Also, the ELISA (Antigen binding ELISA), report result in assay [7] was 107%; in assay [8], 105%; in assay [9], 101%; in [10], 108%; in assay [11], 109%; in [12] it was 106%. The ELISA (Antigen binding ELISA), report result in assay [13] is 102%; in [14], 108%; in [15], 118%; in assay [16], 101%; in [17], 102%; in assay [18], 108%. Besides, the ELISA (Antigen binding ELISA), report result came out at 103% in assay [19], 108% in assay [20], 102% in assay [21] and 123% in assay [22].
